From patent US20110131669A1

Key:
[1] = target: mAb R24 (anti-GD3 monoclonal antibody, IgG3); assay: competitive ELISA: BEC2 pre-incubated with mAb R24 (30 min), remaining R24 binding to plate coated with 0.1 µg GD3 ganglioside
[2] = target: mAb R24 (anti-GD3 monoclonal antibody, IgG3); assay: competitive ELISA: peptide pre-incubated with mAb R24, remaining R24 binding to GD3-coated plate
[3] = target: mAb R24 (anti-GD3 monoclonal antibody, IgG3); assay: competitive ELISA: peptide pre-incubated with mAb R24 (30 min), remaining R24 binding to plate coated with 0.1 µg GD3 ganglioside

Molecule	IC50 [1] [µg/mL]	concentration giving full inhibition [1] [µg/mL]	concentration giving full inhibition [2] [pmol/mL]	IC50 [3] [nM]
mAb BEC2 (anti-idiotypic monoclonal antibody, IgG2b)	10	60		
SVAVPPPADDPSWRY [GD3-like peptide PGD3-6]			> 600	250

Further lines, results first:

IC50 [1] [µg/mL]	concentration giving full inhibition [1] [µg/mL]	concentration giving full inhibition [2] [pmol/mL]	IC50 [3] [nM]	Molecule
		> 600	150	RHAYRSMAEWGFLYS [GD3-like peptide PGD3-4]
		> 600	100	ACTPYAMLPGCK [GD3-like peptide PGD3-5]
		> 600	300	GLAPPDYAERFFLIS [GD3-like peptide PGD3-3]
